Consider one substance from PMC8514705.

In this assay the target is recombinant DR4 extracellular domain (UniProt O00220).
Sequence of recombinant DR4 extracellular domain (O00220 24-239): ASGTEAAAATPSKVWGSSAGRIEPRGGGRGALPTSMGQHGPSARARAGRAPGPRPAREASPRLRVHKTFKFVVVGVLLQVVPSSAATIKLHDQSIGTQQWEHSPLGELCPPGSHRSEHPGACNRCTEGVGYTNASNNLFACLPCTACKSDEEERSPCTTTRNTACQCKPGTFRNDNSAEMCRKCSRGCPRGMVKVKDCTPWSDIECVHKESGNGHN

Turning to “TRAIL (tumor necrosis factor-associated ligand inducing apoptosis), recombinant, amino acid residues 114-280 (from UniProt P50591 114-280)”, the decrease of surface DR4 on HCT116 and HT-29 cells with 1,000 ng/ml TRAIL, time course, flow cytometry came to 90%.
